Results as given in the Immune Epitope Database (IEDB).

What was measured:
HLA-A*68:02 [1] = assay: IEDB peptide-MHC binding, purified MHC/competitive/radioactivity; ≥ and ≤ were set here for values at or beyond the usual limits of such assays
HLA-A*02:02 = assay: IEDB peptide-MHC binding, cellular MHC/competitive/fluorescence; ≥ and ≤ were set here for values at or beyond the usual limits of such assays
HLA-A*02:01 [2] = assay: as above
HLA-A*02:06 [3] = assay: as above
HLA-A*02:03 = assay: as above
HLA-A*02:01 [4] = assay: IEDB peptide-MHC binding, purified MHC/competitive/radioactivity; ≥ and ≤ were set here for values at or beyond the usual limits of such assays; settings: source organism: Vaccinia virus WR
HLA-A*02:06 [5] = assay: as above; settings: source organism: Vaccinia virus WR
HLA-A*68:02 [6] = assay: IEDB peptide-MHC binding, cellular MHC/competitive/fluorescence; ≥ and ≤ were set here for values at or beyond the usual limits of such assays; settings: source organism: Vaccinia virus WR
[7] = source organism: Vaccinia virus WR
[8] = source organism: Influenza A virus
[9] = source organism: Mammarenavirus guanaritoense
[10] = source organism: Mammarenavirus choriomeningitidis

Sequence | IC50 (HLA-A*68:02 [1]; [7]) [µM] | IC50 (HLA-A*02:02; [7]) [µM] | IC50 (HLA-A*02:01 [2]; [7]) [µM] | IC50 (HLA-A*02:06 [3]; [7]) [µM] | IC50 (HLA-A*02:03; [7]) [µM] | other results
ETIQKDINI | 0.046 | 36.6 | ≥ 70 | 34.9 | 50.8 | –
DAIKSNNHLT | 0.768 | 27.4 | ≥ 70 | ≥ 70 | 17.9 | –
AVYFKAKWLT | 0.605 | 27.2 | 8.89 | 8.71 | 8.93 | –
GLESIEQNLT | 1.44 | 7.02 | 34.4 | ≥ 70 | 61.3 | –
SARALKAYFT | 4.15 | 21.6 | 58.4 | 25.7 | 7.81 | –
DVSVSVGTGI | 0.424 | 17.9 | ≥ 70 | 22.2 | 5.83 | –
TVQIIKLL | – | – | – | – | – | IC50 (HLA-A*68:02 [1]; [8]): 1.38 µM; IC50 (HLA-A*02:02; [8]): 43.8 µM; IC50 (HLA-A*02:01 [2]; [8]): 47.2 µM; IC50 (HLA-A*02:06 [3]; [8]): 51.8 µM; IC50 (HLA-A*02:03; [8]): ≥ 70 µM
ETAIRAGYSI | 0.134 | 25.8 | 5.99 | 17.8 | 29.3 | –
ETKRNIARHL | 0.721 | 50 | ≥ 70 | ≥ 70 | 12.4 | –
TINALVYFST | 0.391 | 14.1 | 5.16 | 62.7 | 7.34 | –
NITHTNITTL | 4.91 | 10.4 | 10.1 | 8.17 | 5.02 | –
WILWISFAIS | – | – | – | – | – | IC50 (HLA-A*68:02 [1]; [8]): 2.51 µM; IC50 (HLA-A*02:02; [8]): 18.7 µM; IC50 (HLA-A*02:01 [2]; [8]): 21.2 µM; IC50 (HLA-A*02:06 [3]; [8]): 27.2 µM; IC50 (HLA-A*02:03; [8]): 9.09 µM
NVTGFMEEEI | 1.48 | 10.3 | – | 17.6 | 5.14 | IC50 (HLA-A*02:01 [4]): 4.4 µM
TAFFNTCKPT | 0.535 | 31.6 | 37.9 | 33 | 22.3 | –
YCLDFLFDV | – | – | – | – | – | IC50 (HLA-A*68:02 [1]; [9]): 0.024 µM; IC50 (HLA-A*02:02; [9]): 17.3 µM; IC50 (HLA-A*02:01 [2]; [9]): 40.7 µM; IC50 (HLA-A*02:06 [3]; [9]): ≥ 70 µM; IC50 (HLA-A*02:03; [9]): ≥ 70 µM
NTLIQYRQQL | 0.876 | 6.37 | ≥ 70 | 20.9 | 10.1 | –
TVDFTDCRTI | 0.348 | 31.8 | 29.5 | 10.6 | 10.4 | –
LTSNCTRTT | 2.02 | ≥ 70 | ≥ 70 | 40.7 | 29.6 | –
NTGMGMYYPT | 2.15 | 23.4 | 28.8 | 11.3 | 21 | –
HNASDFYGL | – | – | – | – | – | IC50 (HLA-A*68:02 [1]; [10]): 0.147 µM; IC50 (HLA-A*02:02; [10]): 6.51 µM; IC50 (HLA-A*02:01 [2]; [10]): 15.5 µM; IC50 (HLA-A*02:06 [3]; [10]): 21.8 µM; IC50 (HLA-A*02:03; [10]): ≥ 70 µM
IAIFNNRNL | 0.262 | 9.23 | 38.5 | 13.5 | 10.5 | –
EIVKNIREGT | 0.431 | 28.5 | 11.8 | 60.7 | 8.53 | –
HTKFWISDNT | 0.623 | 21.5 | ≥ 70 | ≥ 70 | 60.2 | –

Sequence | IC50 (HLA-A*68:02 [1]; [7]) [µM] | IC50 (HLA-A*02:02; [7]) [µM] | IC50 (HLA-A*02:01 [2]; [7]) [µM] | IC50 (HLA-A*02:06 [3]; [7]) [µM] | IC50 (HLA-A*02:03; [7]) [µM] | other results
DTIESAKTKI | 0.57 | 47.9 | 58.9 | ≥ 70 | 50.5 | –
ETFPNVHEHI | 0.00045 | 8.02 | 23.9 | ≥ 70 | 6.62 | –
VAEHRFENM | 4.42 | 7.13 | ≥ 70 | 48.1 | 7.16 | –
CVKYLLDNDI | 1.98 | 31.8 | 13 | 7.58 | 5.67 | –
IAVSVYGAIT | 4.38 | 7.89 | – | 14.4 | 9.24 | –
LTHGADPNA | 1.37 | 19.4 | ≥ 70 | 29.4 | 10.5 | –
DVIKSISSI | 0.504 | 63.8 | 32 | 15 | 7.52 | –
TAEQLSKYV | 2.17 | 5.22 | 53.2 | 23.9 | 8.9 | –
CVDIFTEGKI | 1.31 | ≥ 70 | 43.2 | 20.9 | 17.5 | –
EVIGLTTHCT | 0.017 | 10.5 | 24.8 | 12.2 | 14.9 | –
TTNNLLEQLI | 0.073 | 8.88 | – | 13.1 | 21 | IC50 (HLA-A*02:01 [4]): 4.93 µM
YTEAAAATCA | 0.159 | 36.5 | 36.5 | 7.16 | 16.1 | –
ETNIGCAVNT | 0.022 | ≥ 70 | 58.4 | ≥ 70 | 37 | –
LIYYQNEVT | 1.08 | 14 | 27.9 | 8.51 | 5.21 | –
TAIRAGYSI | 0.125 | 14.5 | 26.6 | 7.69 | 9.2 | –
MAFILGIII | 4.93 | 9.54 | 5.87 | 32.5 | 9.76 | –
VIVPDIKLDA | – | 33.5 | 22.6 | – | 21.4 | IC50 (HLA-A*02:06 [5]): 0.883 µM; IC50 (HLA-A*68:02 [6]): ≥ 70 µM
FTELENKKV | 3.98 | 19.6 | ≥ 70 | 6.84 | 8.08 | –
DVNSVQFSI | 0.026 | 10.4 | 11.5 | 16.9 | 16.2 | –
ITLILSNKL | – | 5.11 | 6.79 | – | 17.1 | IC50 (HLA-A*02:06 [5]): 0.396 µM; IC50 (HLA-A*68:02 [6]): 8.73 µM
DTEFINKFL | 0.117 | 7.42 | ≥ 70 | ≥ 70 | 42.7 | –
NVTVTHSV | – | – | – | – | – | IC50 (HLA-A*68:02 [1]; [8]): 1.27 µM; IC50 (HLA-A*02:02; [8]): 60.5 µM; IC50 (HLA-A*02:01 [2]; [8]): 22.6 µM; IC50 (HLA-A*02:06 [3]; [8]): 18.6 µM; IC50 (HLA-A*02:03; [8]): 14.6 µM
NVQSLIKFI | 0.703 | 12.9 | 17.1 | 10.5 | 6.02 | –

Sequence | IC50 (HLA-A*68:02 [1]; [7]) [µM] | IC50 (HLA-A*02:02; [7]) [µM] | IC50 (HLA-A*02:01 [2]; [7]) [µM] | IC50 (HLA-A*02:06 [3]; [7]) [µM] | IC50 (HLA-A*02:03; [7]) [µM] | other results
STSNVITDQT | 0.077 | 53.6 | 39.1 | 10.8 | ≥ 70 | –
NIREGTHVLL | 2.53 | 8.88 | 13.4 | 34.6 | 5.51 | –
SVDFVVNGHT | 1.34 | ≥ 70 | ≥ 70 | ≥ 70 | ≥ 70 | –
CTEETKRNI | 3.92 | ≥ 70 | ≥ 70 | ≥ 70 | ≥ 70 | –
EALYYVHSL | 0.347 | 14.2 | 17.6 | 14.8 | 5.77 | –
DTCGASINIT | 1.93 | 23.6 | 42.6 | ≥ 70 | ≥ 70 | –
DTSPTKRCRL | 1.99 | 12.2 | ≥ 70 | 44.6 | 37.1 | –
FVVNGHTCM | – | 6.64 | 22.3 | – | 5.9 | IC50 (HLA-A*02:06 [5]): 1.81 µM; IC50 (HLA-A*68:02 [6]): 7.46 µM
DVEKRILNTI | 4.4 | 21 | 55.1 | 10.8 | 12.6 | –
NACDKHNKT | 0.925 | 17.9 | 22.5 | 18.6 | 9.25 | –
ELPVKTDIV | 3.59 | 23 | 11.1 | 11.5 | 8.06 | –
DTDIVNNFIT | – | 8.59 | 7.86 | – | 5.59 | IC50 (HLA-A*02:06 [5]): 2.31 µM; IC50 (HLA-A*68:02 [6]): 7.68 µM
TVKNVDIIDL | 0.834 | 31.3 | 63.3 | 12.4 | 8.31 | –
KVIKLVKSLV | – | 14.3 | 24.9 | – | 13.4 | IC50 (HLA-A*02:06 [5]): 2.15 µM; IC50 (HLA-A*68:02 [6]): 16.2 µM
TAATKRYPGV | 0.96 | 25.5 | 43.1 | 5.57 | 10.5 | –
PVVYHDDDNT | – | 9.14 | 11.7 | – | 26.8 | IC50 (HLA-A*02:06 [5]): 1.35 µM; IC50 (HLA-A*68:02 [6]): 11.4 µM
KVEKYLPEVI | – | 12.1 | 8.62 | – | 12.4 | IC50 (HLA-A*02:06 [5]): 0.734 µM; IC50 (HLA-A*68:02 [6]): ≥ 70 µM
EAFETQSGA | 0.104 | ≥ 70 | ≥ 70 | ≥ 50 | ≥ 70 | –
DTDIVNNFI | 0.628 | 9.32 | 26.2 | 15.7 | 19.4 | –
KTPVIVVPVI | – | 9.09 | 12 | – | 6.2 | IC50 (HLA-A*02:06 [5]): 1.89 µM; IC50 (HLA-A*68:02 [6]): 36.5 µM
KTEHCDDFM | – | 6.5 | 16.1 | – | 18.1 | IC50 (HLA-A*02:06 [5]): 2.52 µM; IC50 (HLA-A*68:02 [6]): ≥ 70 µM
